Measurements reported in the supplement of paper PMC10567573.

B1: TRIM63 (parent)
chain: ANPYWTSRGSSVSMSGGRFRCPTC
B2: TOR1AIP2 (parent)
chain: YTSSQKVSPIQIDGAGRTWQDSDT

Variants of: B1
Assay: protein stability index of a GFP-peptide fusion (GPS, HEK-293T) (PSI 1-6); higher = more stable
Settings: c terminus: a fixed tail appended
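Further: lentivirally expressed fusions sorted by FACS into six bins by GFP to DsRed ratio, PSI derived from sequencing read proportions per bin multiplied by bin number.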

Variant | protein stability index
ANPYWTSRGSSVSMSGGRFRCPPC | 2.26
ANPYWTSRGSSVSMSGGRFRCPKC | 3.23
ANPYWTSRGSSVSMSGGRFRCPYC | 1.75
ANPYWTSRGSSVSMSGGRFRCPHC | 2.28
ANPYWTSRGSSVSMSGGRFRCPMC | 2.44
ANPYWTSRGSSVSMSGGRFRCPGC | 3.11
ANPYWTSRGSSVSMSGGRFRCPLC | 2.58
ANPYWTSRGSSVSMSGGRFRCPQC | 1.95
ANPYWTSRGSSVSMSGGRFRCPDC | 1.71
ANPYWTSRGSSVSMSGGRFRCPAC | 1.87
ANPYWTSRGSSVSMSGGRFRCPWC | 2.47
ANPYWTSRGSSVSMSGGRFRCPEC | 1.69
ANPYWTSRGSSVSMSGGRFRCPSC | 2.52
ANPYWTSRGSSVSMSGGRFRCPVC | 1.34
ANPYWTSRGSSVSMSGGRFRCPNC | 2.03
ANPYWTSRGSSVSMSGGRFRCPRC | 2.43
ANPYWTSRGSSVSMSGGRFRCPFC | 1.45
ANPYWTSRGSSVSMSGGRFRCTTC | 2.69
ANPYWTSRGSSVSMSGGRFRCMTC | 1.97
ANPYWTSRGSSVSMSGGRFRCQTC | 2.87

Variant | protein stability index
ANPYWTSRGSSVSMSGGRFRCRTC | 2.12
ANPYWTSRGSSVSMSGGRFRCNTC | 2.5
ANPYWTSRGSSVSMSGGRFRCSTC | 2.19
ANPYWTSRGSSVSMSGGRFRCVTC | 2.56
ANPYWTSRGSSVSMSGGRFRCPTY | 3.28
ANPYWTSRGSSVSMSGGRFRCPTG | 3.18
ANPYWTSRGSSVSMSGGRFRCPTN | 2.66
ANPYWTSRGSSVSMSGGRFRCPTI | 2.05
ANPYWTSRGSSVSMSGGRFRCPTS | 2.88
ANPYWTSRGSSVSMSGGRFRCPTQ | 2.12
ANPYWTSRGSSVSMSGGRFRCPTK | 2.84
ANPYWTSRGSSVSMSGGRFRCPTT | 2.69
ANPYWTSRGSSVSMSGGRFRCPTP | 3.22
ANPYWTSRGSSVSMSGGRFRCPTF | 2.55
ANPYWTSRGSSVSMSGGRFRCPTD | 3.73
ANPYWTSRGSSVSMSGGRFRCPTV | 2.3
ANPYWTSRGSSVSMSGGRFRCPTM | 2.07
ANPYWTSRGSSVSMSGGRFRCPTE | 3.19
ANPYWTSRGSSVSMSGGRFRCPTR | 4.13
ANPYWTSRGSSVSMSGGRFRCPTH | 2.29

Variants of: B2
Assay: as above
Settings: c terminus: a fixed tail appended

Variant | protein stability index
YTSSQCVSPIQIDGAGRTWQDSDT | 3.04
YTSSQMVSPIQIDGAGRTWQDSDT | 3.6
YTSSQPVSPIQIDGAGRTWQDSDT | 4.01
YTSSQQVSPIQIDGAGRTWQDSDT | 3.76
YTSSQEVSPIQIDGAGRTWQDSDT | 4.82
YTSSQTVSPIQIDGAGRTWQDSDT | 4.03
YTSSQGVSPIQIDGAGRTWQDSDT | 3.42
YTSSQIVSPIQIDGAGRTWQDSDT | 3.67
YTSSQFVSPIQIDGAGRTWQDSDT | 3.73
YTSSQWVSPIQIDGAGRTWQDSDT | 3.33
YTSSQDVSPIQIDGAGRTWQDSDT | 4.86
YTSSQNVSPIQIDGAGRTWQDSDT | 3.97
YTSSQAVSPIQIDGAGRTWQDSDT | 3.58
YTSSQHVSPIQIDGAGRTWQDSDT | 3.51
YTSSQVVSPIQIDGAGRTWQDSDT | 3.52
YTSSQLVSPIQIDGAGRTWQDSDT | 2.9
YTSSQYVSPIQIDGAGRTWQDSDT | 1.31
YTSSQSVSPIQIDGAGRTWQDSDT | 3.51
YTSSQRVSPIQIDGAGRTWQDSDT | 3.41
DTSSQKVSPIQIDGAGRTWQDSDT | 4.85
LTSSQKVSPIQIDGAGRTWQDSDT | 4.06
ITSSQKVSPIQIDGAGRTWQDSDT | 4.3
ETSSQKVSPIQIDGAGRTWQDSDT | 5.31
FTSSQKVSPIQIDGAGRTWQDSDT | 3.02
QTSSQKVSPIQIDGAGRTWQDSDT | 4.64

Variant | protein stability index
KTSSQKVSPIQIDGAGRTWQDSDT | 4.86
VTSSQKVSPIQIDGAGRTWQDSDT | 4.26
HTSSQKVSPIQIDGAGRTWQDSDT | 5.19
NTSSQKVSPIQIDGAGRTWQDSDT | 4.87
STSSQKVSPIQIDGAGRTWQDSDT | 4.77
MTSSQKVSPIQIDGAGRTWQDSDT | 5.05
CTSSQKVSPIQIDGAGRTWQDSDT | 4.22
TTSSQKVSPIQIDGAGRTWQDSDT | 4.68
WTSSQKVSPIQIDGAGRTWQDSDT | 3.6
RTSSQKVSPIQIDGAGRTWQDSDT | 4.8
ATSSQKVSPIQIDGAGRTWQDSDT | 3.7
PTSSQKVSPIQIDGAGRTWQDSDT | 4.4
YMSSQKVSPIQIDGAGRTWQDSDT | 3.9
YSSSQKVSPIQIDGAGRTWQDSDT | 4.31
YQSSQKVSPIQIDGAGRTWQDSDT | 3.17
YHSSQKVSPIQIDGAGRTWQDSDT | 2.14
YLSSQKVSPIQIDGAGRTWQDSDT | 3.94
YYSSQKVSPIQIDGAGRTWQDSDT | 3.54
YNSSQKVSPIQIDGAGRTWQDSDT | 4.41
YFSSQKVSPIQIDGAGRTWQDSDT | 4.19
YWSSQKVSPIQIDGAGRTWQDSDT | 2.83
YKSSQKVSPIQIDGAGRTWQDSDT | 4.83
YPSSQKVSPIQIDGAGRTWQDSDT | 3.93
YISSQKVSPIQIDGAGRTWQDSDT | 2.58
YASSQKVSPIQIDGAGRTWQDSDT | 3.8

Variant | protein stability index
YCSSQKVSPIQIDGAGRTWQDSDT | 2.46
YDSSQKVSPIQIDGAGRTWQDSDT | 5.15
YGSSQKVSPIQIDGAGRTWQDSDT | 3.91
YRSSQKVSPIQIDGAGRTWQDSDT | 4.72
YESSQKVSPIQIDGAGRTWQDSDT | 4.74
YTSSQKVSAIQIDGAGRTWQDSDT | 3.34
YTSSQKVSCIQIDGAGRTWQDSDT | 3.02
YTSSQKMSPIQIDGAGRTWQDSDT | 2.51
YTSSQKISPIQIDGAGRTWQDSDT | 2.9
YTSSQKDSPIQIDGAGRTWQDSDT | 3.67
YTSSQKSSPIQIDGAGRTWQDSDT | 3.52
YTSSQKYSPIQIDGAGRTWQDSDT | 1.54
YTSSQKCSPIQIDGAGRTWQDSDT | 2.67
YTSSQKNSPIQIDGAGRTWQDSDT | 3.97
YTSSQKQSPIQIDGAGRTWQDSDT | 4.19
YTSSQKGSPIQIDGAGRTWQDSDT | 3.96
YTSSQKASPIQIDGAGRTWQDSDT | 3.41
YTSSQKKSPIQIDGAGRTWQDSDT | 4.03
YTSSQKTSPIQIDGAGRTWQDSDT | 3.78
YTSSQKHSPIQIDGAGRTWQDSDT | 3.58
YTSSQKPSPIQIDGAGRTWQDSDT | 3.6
YTSSQKRSPIQIDGAGRTWQDSDT | 3.43
YTSSQKLSPIQIDGAGRTWQDSDT | 3.12
YTSSQKFSPIQIDGAGRTWQDSDT | 3.64
YTSSQKESPIQIDGAGRTWQDSDT | 3.46

Variant | protein stability index
YTLSQKVSPIQIDGAGRTWQDSDT | 3.18
YTYSQKVSPIQIDGAGRTWQDSDT | 2.81
YTISQKVSPIQIDGAGRTWQDSDT | 3.13
YTNSQKVSPIQIDGAGRTWQDSDT | 4.21
YTFSQKVSPIQIDGAGRTWQDSDT | 2.95
YTHSQKVSPIQIDGAGRTWQDSDT | 4.38
YTRSQKVSPIQIDGAGRTWQDSDT | 3.39
YTTSQKVSPIQIDGAGRTWQDSDT | 3.08
YTKSQKVSPIQIDGAGRTWQDSDT | 3.82
YTDSQKVSPIQIDGAGRTWQDSDT | 4.32
YTVSQKVSPIQIDGAGRTWQDSDT | 3.3
YTCSQKVSPIQIDGAGRTWQDSDT | 3.55
YTASQKVSPIQIDGAGRTWQDSDT | 3
YTMSQKVSPIQIDGAGRTWQDSDT | 3.01
YTQSQKVSPIQIDGAGRTWQDSDT | 3.82
YTGSQKVSPIQIDGAGRTWQDSDT | 3.61
YTWSQKVSPIQIDGAGRTWQDSDT | 3.04
YTPSQKVSPIQIDGAGRTWQDSDT | 2.57
YTESQKVSPIQIDGAGRTWQDSDT | 3.87
YTSSQKVCPIQIDGAGRTWQDSDT | 3.12
YTSSQKVYPIQIDGAGRTWQDSDT | 2.16
YTSSQKVFPIQIDGAGRTWQDSDT | 2.75
YTSSQKVMPIQIDGAGRTWQDSDT | 3.06
YTSSQKVGPIQIDGAGRTWQDSDT | 3.25
YTSSQKVRPIQIDGAGRTWQDSDT | 2.67

Variant | protein stability index
YTSSQKVAPIQIDGAGRTWQDSDT | 3.52
YTSSQKVTPIQIDGAGRTWQDSDT | 3.36
YTSSQKVVPIQIDGAGRTWQDSDT | 2.67
YTSSQKVWPIQIDGAGRTWQDSDT | 3.33
YTSSQKVPPIQIDGAGRTWQDSDT | 3.1
YTSSQKVKPIQIDGAGRTWQDSDT | 3.46
YTSSQKVLPIQIDGAGRTWQDSDT | 2.82
YTSSQKVEPIQIDGAGRTWQDSDT | 4.47
YTSSQKVIPIQIDGAGRTWQDSDT | 2.35
YTSSQKVDPIQIDGAGRTWQDSDT | 2.9
YTSSQKVQPIQIDGAGRTWQDSDT | 3.17
YTSSQKVHPIQIDGAGRTWQDSDT | 2.57
YTSSQKVNPIQIDGAGRTWQDSDT | 4
YTSRQKVSPIQIDGAGRTWQDSDT | 3.23
YTSNQKVSPIQIDGAGRTWQDSDT | 3.65
YTSPQKVSPIQIDGAGRTWQDSDT | 3.18
YTSTQKVSPIQIDGAGRTWQDSDT | 3.34
YTSKQKVSPIQIDGAGRTWQDSDT | 2.36
YTSDQKVSPIQIDGAGRTWQDSDT | 4.57
YTSAQKVSPIQIDGAGRTWQDSDT | 3.06
YTSFQKVSPIQIDGAGRTWQDSDT | 2.58
YTSGQKVSPIQIDGAGRTWQDSDT | 3.59
YTSYQKVSPIQIDGAGRTWQDSDT | 2.67
YTSIQKVSPIQIDGAGRTWQDSDT | 2.92
YTSQQKVSPIQIDGAGRTWQDSDT | 3.25

Variant | protein stability index
YTSLQKVSPIQIDGAGRTWQDSDT | 2.84
YTSEQKVSPIQIDGAGRTWQDSDT | 3.35
YTSCQKVSPIQIDGAGRTWQDSDT | 2.78
YTSMQKVSPIQIDGAGRTWQDSDT | 2.65
YTSVQKVSPIQIDGAGRTWQDSDT | 3.27
YTSHQKVSPIQIDGAGRTWQDSDT | 3.37
YTSSKKVSPIQIDGAGRTWQDSDT | 3.45
YTSSMKVSPIQIDGAGRTWQDSDT | 3.86
YTSSNKVSPIQIDGAGRTWQDSDT | 3.04
YTSSHKVSPIQIDGAGRTWQDSDT | 2.87
YTSSPKVSPIQIDGAGRTWQDSDT | 2.96
YTSSTKVSPIQIDGAGRTWQDSDT | 3.6
YTSSDKVSPIQIDGAGRTWQDSDT | 4.04
YTSSIKVSPIQIDGAGRTWQDSDT | 3.12
YTSSGKVSPIQIDGAGRTWQDSDT | 3.38
YTSSRKVSPIQIDGAGRTWQDSDT | 3.35
YTSSSKVSPIQIDGAGRTWQDSDT | 3.87
YTSSEKVSPIQIDGAGRTWQDSDT | 4.2
YTSSYKVSPIQIDGAGRTWQDSDT | 2.34
YTSSLKVSPIQIDGAGRTWQDSDT | 3.58
YTSSVKVSPIQIDGAGRTWQDSDT | 3.31
YTSSAKVSPIQIDGAGRTWQDSDT | 3.08
YTSSCKVSPIQIDGAGRTWQDSDT | 2.13
